Legend:
Experiment in all cases: SEC
[1] = target: PahZ1Bfg, PahZ1 homolog from Brevifollis gellanilyticus (PahZ1-like domain fused to a CapA-like domain), residues 23-644 (Brevifollis gellanilyticus)
[2] = target: PahZ1_(KT-1), poly(aspartic acid) hydrolase PahZ1 from Sphingomonas sp. KT-1 (Sphingomonas sp. KT-1)
[3] = target: PahZ1_(Spyx), PahZ1 homolog from Sphingopyxis sp. Root1497, residues 21-313 (Sphingopyxis sp. Root1497)

PahZ1Bfg, PahZ1 homolog from Brevifollis gellanilyticus (PahZ1-like domain fused to a CapA-like domain), residues 23-644 (enzyme)
stoichiometry N [1]: 2

PahZ1_(KT-1), poly(aspartic acid) hydrolase PahZ1 from Sphingomonas sp. KT-1 (enzyme)
stoichiometry N [2]: 2

PahZ1_(Spyx), PahZ1 homolog from Sphingopyxis sp. Root1497, residues 21-313 (enzyme)
stoichiometry N [3]: 2

Source: paper PMC13017698
